Literature values as cited in US6355270B1, “Particles for oral delivery of peptides and proteins” (The Regents of the University of California, priority 1999, dated 2002).
Read-outs that look alike come from different tables or passages of the source.

Tests used:
[1] = tested on: intestinal tight junctions; details: in vivo
[2] = tested on: intestinal tight junctions; details: rabbit intestine, in vitro, reversible
[3] = tested on: diabetic rats

For Zonula occludens toxin [Zot], the “increase of insulin absorption” value ([1]; both rabbit jejunum and ileum) is listed as 10 fold, the “change of insulin absorption” value ([1]; rabbit colon) is listed as “no substantial changes” and the “increase of IgG absorption” value ([1]; rabbit ileum) is listed as “six-fold”. The “increase of IgG absorption” value ([1]; rabbit jejunum) was “twofold”, the “increase of intestinal permeability to insulin” value ([2]; P=0.034) was 72% and the “increase of intestinal permeability to immunoglobulins” value ([2]; P=0.04) was 52%. The survival time ([3]; diabetic animals chronically treated with oral insulin+Zot, versus parenterally treated rats) was “comparable to that observed in parenterally treated rats” and the “lowering of serum glucose concentrations” value ([3]; diabetic rats, oral insulin co-administered with Zot, versus parenteral injection of insulin) was “comparable to those obtained after parenteral injection of the hormone”.
